According to patent US20200377596A1 (AMPHIVENA THERAPEUTICS, published 2020):

Molecular target: CD33 (UniProt P20138 18-364, limits assumed)
Experiment: cell-based or functional assay

Sequence of CD33 (P20138 18-364 limits assumed): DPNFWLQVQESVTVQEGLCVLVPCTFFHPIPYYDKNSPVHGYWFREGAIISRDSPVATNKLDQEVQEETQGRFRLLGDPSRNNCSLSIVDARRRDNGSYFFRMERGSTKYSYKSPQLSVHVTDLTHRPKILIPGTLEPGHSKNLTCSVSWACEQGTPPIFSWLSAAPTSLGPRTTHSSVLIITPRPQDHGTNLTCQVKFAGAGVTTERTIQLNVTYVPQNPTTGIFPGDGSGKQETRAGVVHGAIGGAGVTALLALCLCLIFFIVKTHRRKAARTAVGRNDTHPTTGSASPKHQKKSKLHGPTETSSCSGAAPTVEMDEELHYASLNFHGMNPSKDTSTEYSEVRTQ

B1: AMV564 (bispecific antibody)
chain: DIQMTQSPSSLSASVGDRVTITCRSSTGAVTTSNYANWVQQKPGKAPKALIGGTNKRAPGVPSRFSGSLIGDKATLTISSLQPEDFATYYCALWYSNLWVFGQGTKVEIKGGSGGSQVQLVQSGAEVKKPGASVKVSCKASGYTFTSYDINWVRQAPGQGLEWMGWMNPNSGNTGFAQKFQGRVTMTRDTSTSTVYMELSSLRSEDTAVYYCARDRANTDYSLGMDVWGQGTLVTVSSGGSGQSVLTQPPSASGTPGQRVTISCSGSRSNIGSNTVNWYQQLPGTAPKLLIYGNNQRPSGVPDRFSGSKSGTSASLAISGLQSEDEADYYCATWDDSLIGWVFGGGTKLTVLGGSGGSEVQLVESGGGLVQPGGSLRLSCAASGFTFSTYAMNWVRQAPGKGLEWVGRIRSKYNNYATYYADSVKDRFTISRDDSKNSLYLQMNSLKTEDTAVYYCARHGNFGNSYVSYFAYWGQGTLVTVSS
proliferation of CD4+ and CD8+ T cells: > 2 fold
